# Columns and labels:
# AroH = molecular target: T1, AroH (Aspergillus fumigatus, UniProt Q4X0F7); assay: intrinsic fluorescence quenching of apoenzyme, tight-binding fit; conditions: read-out: KD(PLP)
# T1 construct: gene AFUA_2G13630; entire AroH cDNA with C-terminal 6xHis tag (kept) in pET22b, synthesized by GenScript, expressed in E. coli BL21(DE3); subunit mass 59480 Da; homodimer with 1 PLP per subunit
# T1 sequence (Q4X0F7 1-526): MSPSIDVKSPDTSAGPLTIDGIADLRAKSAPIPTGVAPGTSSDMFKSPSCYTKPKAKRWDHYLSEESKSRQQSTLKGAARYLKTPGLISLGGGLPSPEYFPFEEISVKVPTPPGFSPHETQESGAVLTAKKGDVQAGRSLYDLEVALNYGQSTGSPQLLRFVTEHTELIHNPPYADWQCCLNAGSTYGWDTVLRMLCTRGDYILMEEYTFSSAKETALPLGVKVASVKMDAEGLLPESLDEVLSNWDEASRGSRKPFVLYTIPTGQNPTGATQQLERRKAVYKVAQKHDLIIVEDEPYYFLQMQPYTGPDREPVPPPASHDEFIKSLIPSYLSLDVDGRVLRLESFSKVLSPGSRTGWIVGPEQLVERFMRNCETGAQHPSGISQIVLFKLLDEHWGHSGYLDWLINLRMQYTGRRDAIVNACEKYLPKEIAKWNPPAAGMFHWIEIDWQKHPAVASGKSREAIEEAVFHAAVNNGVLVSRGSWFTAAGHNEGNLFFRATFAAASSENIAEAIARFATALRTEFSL
# [1] = molecular target: Aspergillus fumigatus AroH, recombinant, with a C-terminal 6xHis tag (Aspergillus fumigatus); assay: SEC; 5 uM holoAroH on Superdex 200 10/300 GL, 0.1 M potassium phosphate pH 7.4, 0.5 ml/min; elution volume compared with molecular weight standards
# purified protein [2] = substrate: N[C@@H](CCC(=O)O)C(=O)O; assay: purified protein; format: biochemical, Aspergillus fumigatus; conditions: co-substrate α-ketoadipate, 100 μM PLP, 66 mM potassium phosphate pH 7.4
# purified protein [3] = substrate: N[C@@H](CCCC(=O)O)C(=O)O; assay: purified protein; format: biochemical, Aspergillus fumigatus; conditions: co-substrate α-ketoglutarate, 100 μM PLP, 66 mM potassium phosphate pH 7.4
# purified protein [4] = substrate: N[C@@H](Cc1c[nH]c2ccccc12)C(=O)O; assay: purified protein; format: biochemical, Aspergillus fumigatus; conditions: co-substrate 1 mM α-ketoglutarate, 100 μM PLP, 66 mM potassium phosphate pH 8.2, 25°C, pH 8.2
# purified protein [5] = substrate: N[C@@H](Cc1ccc(O)cc1)C(=O)O; assay: purified protein; format: biochemical, Aspergillus fumigatus; conditions: co-substrate 1 mM α-ketoglutarate, 100 μM PLP, 66 mM potassium phosphate pH 8.2, 25°C, pH 8.2
# purified protein [6] = substrate: N[C@@H](Cc1ccccc1)C(=O)O; assay: purified protein; format: biochemical, Aspergillus fumigatus; conditions: co-substrate 1 mM α-ketoglutarate, 100 μM PLP, 66 mM potassium phosphate pH 8.2 (Figure 5 legend says pH 7.4), 25°C
# purified protein [7] = substrate: Nc1ccccc1C(=O)C[C@H](N)C(=O)O; assay: purified protein; format: biochemical, Aspergillus fumigatus; conditions: co-substrate α-ketoglutarate, 100 μM PLP, 66 mM potassium phosphate pH 7.4
# purified protein [8] = substrate: O=C(O)CCC(=O)C(=O)O; assay: purified protein; format: biochemical, Aspergillus fumigatus; conditions: co-substrate 20 mM L-tryptophan, 100 μM PLP, 66 mM potassium phosphate pH 8.2, 25°C, pH 8.2
# purified protein [9] = substrate: O=C(O)CCCC(=O)C(=O)O; assay: purified protein; format: biochemical, Aspergillus fumigatus; conditions: co-substrate L-glutamate, 100 μM PLP, 66 mM potassium phosphate pH 7.4
molecule,measurement,setting,value
Cc1ncc(COP(=O)(O)O)c(C=O)c1O [PLP],Kd,AroH,100 ± 20 nM
"Aspergillus fumigatus AroH, recombinant, with a C-terminal 6xHis tag (enzyme)",stoichiometry N,[1],2
"AroH (Aspergillus fumigatus Af293) (protein, entire AroH cDNA with C-terminal 6xHis tag (kept) in pET22b, synthesized by GenScript, expressed in E. coli BL21(DE3); subunit mass 59480 Da; homodimer with 1 PLP per subunit) MSPSIDVKSPDTSAGPLTIDGIADLRAKSAPIPTGVAPGTSSDMFKSPSCYTKPKAKRWDHYLSEESKSRQQSTLKGAARYLKTPGLISLGGGLPSPEYFPFEEISVKVPTPPGFSPHETQESGAVLTAKKGDVQAGRSLYDLEVALNYGQSTGSPQLLRFVTEHTELIHNPPYADWQCCLNAGSTYGWDTVLRMLCTRGDYILMEEYTFSSAKETALPLGVKVASVKMDAEGLLPESLDEVLSNWDEASRGSRKPFVLYTIPTGQNPTGATQQLERRKAVYKVAQKHDLIIVEDEPYYFLQMQPYTGPDREPVPPPASHDEFIKSLIPSYLSLDVDGRVLRLESFSKVLSPGSRTGWIVGPEQLVERFMRNCETGAQHPSGISQIVLFKLLDEHWGHSGYLDWLINLRMQYTGRRDAIVNACEKYLPKEIAKWNPPAAGMFHWIEIDWQKHPAVASGKSREAIEEAVFHAAVNNGVLVSRGSWFTAAGHNEGNLFFRATFAAASSENIAEAIARFATALRTEFSL",Km,purified protein [2],10000 ± 1000 µM
same,kcat,purified protein [2],10.3 ± 0.3 s⁻¹
same,kcat/Km,purified protein [2],960 ± 80 M⁻¹ s⁻¹
same,Km,purified protein [3],3300 ± 400 µM
same,kcat,purified protein [3],13.2 ± 0.5 s⁻¹
same,kcat/Km,purified protein [3],4000 ± 400 M⁻¹ s⁻¹
same,Km,purified protein [4],2100 ± 300 µM
same,kcat,purified protein [4],3 ± 0.1 s⁻¹
same,kcat/Km,purified protein [4],1400 ± 200 M⁻¹ s⁻¹
same,Km,purified protein [5],500 ± 100 µM
same,kcat,purified protein [5],4 ± 0.3 s⁻¹
same,kcat/Km,purified protein [5],8000 ± 2000 M⁻¹ s⁻¹
same,Km,purified protein [6],1400 ± 200 µM
same,kcat,purified protein [6],7.4 ± 0.2 s⁻¹
same,kcat/Km,purified protein [6],5200 ± 600 M⁻¹ s⁻¹
same,Km,purified protein [7],9000 ± 2000 µM
same,kcat,purified protein [7],4.1 ± 0.4 s⁻¹
same,kcat/Km,purified protein [7],400 ± 100 M⁻¹ s⁻¹
same,Km,purified protein [8],180 ± 20 µM
same,kcat,purified protein [8],2.5 ± 0.1 s⁻¹
same,kcat/Km,purified protein [8],14000 ± 2000 M⁻¹ s⁻¹
same,Km,purified protein [9],140 ± 30 µM
same,kcat,purified protein [9],12.5 ± 1 s⁻¹
same,kcat/Km,purified protein [9],90000 ± 20000 M⁻¹ s⁻¹

# — paper PMC6279937, “Biochemical Characterization of Aspergillus fumigatus AroH, a Putative Aromatic Amino Acid Aminotransferase” (Frontiers in Molecular Biosciences, 2018)
